{"source": "patent US20140271668", "key": {"[1]": {"molecular_target": "lentiviral wild type parkin (expressed in transfected neuroblastoma cells), O60260"}, "[2]": {"molecular_target": "T1, non-catalytic mutant T240R parkin (lentiviral), O60260", "T1 chain": "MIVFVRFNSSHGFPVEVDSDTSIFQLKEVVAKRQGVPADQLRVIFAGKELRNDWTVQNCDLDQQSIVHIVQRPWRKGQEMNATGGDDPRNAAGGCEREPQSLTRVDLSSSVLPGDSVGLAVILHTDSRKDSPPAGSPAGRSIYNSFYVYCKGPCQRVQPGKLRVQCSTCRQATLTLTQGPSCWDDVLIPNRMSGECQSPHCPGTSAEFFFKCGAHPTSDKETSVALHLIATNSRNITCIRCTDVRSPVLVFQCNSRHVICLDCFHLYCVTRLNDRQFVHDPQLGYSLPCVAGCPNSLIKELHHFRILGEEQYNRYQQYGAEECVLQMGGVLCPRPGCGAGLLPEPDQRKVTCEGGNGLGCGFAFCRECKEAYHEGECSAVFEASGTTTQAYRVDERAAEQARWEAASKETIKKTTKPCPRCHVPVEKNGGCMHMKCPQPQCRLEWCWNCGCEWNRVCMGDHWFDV"}}}
{"protein": "lentiviral USP13 (expressed in transfected neuroblastoma cells) (protein) MQRRGALFGMPGGSGGRKMAAGDIGELLVPHMPTIRVPRSGDRVYKNECAFSYDSPNSEGGLYVCMNTFLAFGREHVERHFRKTGQSVYMHLKRHVREKVRGASGGALPKRRNSKIFLDLDTDDDLNSDDYEYEDEAKLVIFPDHYEIALPNIEELPALVTIACDAVLSSKSPYRKQDPDTWENELPVSKYANNLTQLDNGVRIPPSGWKCARCDLRENLWLNLTDGSVLCGKWFFDSSGGNGHALEHYRDMGYPLAVKLGTITPDGADVYSFQEEEPVLDPHLAKHLAHFGIDMLHMHGTENGLQDNDIKLRVSEWEVIQESGTKLKPMYGPGYTGLKNLGNSCYLSSVMQAIFSIPEFQRAYVGNLPRIFDYSPLDPTQDFNTQMTKLGHGLLSGQYSKPPVKSELIEQVMKEEHKPQQNGISPRMFKAFVSKSHPEFSSNRQQDAQEFFLHLVNLVERNRIGSENPSDVFRFLVEERIQCCQTRKVRYTERVDYLMQLPVAMEAATNKDELIAYELTRREAEANRRPLPELVRAKIPFSACLQAFSEPENVDDFWSSALQAKSAGVKTSRFASFPEYLVVQIKKFTFGLDWVPKKFDVSIDMPDLLDINHLRARGLQPGEEELPDISPPIVIPDDSKDRLMNQLIDPSDIDESSVMQLAEMGFPLEACRKAVYFTGNMGAEVAFNWIIVHMEEPDFAEPLTMPGYGGAASAGASVFGASGLDNQPPEEIVAIITSMGFQRNQAIQALRATNNNLERALDWIFSHPEFEEDSDFVIEMENNANANIISEAKPEGPRVKDGSGTYELFAFISHMGTSTMSGHYICHIKKEGRWVIYNDHKVCASERPPKDLGYMYFYRRIPS", "values": [{"measurement": "parkin ubiquitination (E3LITE ubiquitin ligase ELISA with E1, UbcH7, ATP and WT ubiquitin)", "setting": "[1]", "value": "USP13 significantly decreased (36%) parkin ubiquitination"}, {"measurement": "ubiquitinated parkin level (parkin immunoprecipitation and Western blot with anti-ubiquitin antibodies)", "setting": "[1]", "value": "decreased ubiquitinated parkin level when parkin was co-expressed with USP13"}, {"measurement": "level of ubiquitinated proteins (parkin immunoprecipitation and Western blot with anti-ubiquitin antibodies)", "setting": "[2]", "value": "the level of ubiquitinated proteins when mutant T240R parkin was expressed was unaltered in the presence or absence of USP13"}]}
